{"source": "paper PMC9537309", "parents": {"B1": {"name": "FLAG-tagged DND1 wild-type (Dead End, full-length human protein 1-353) [human] / SYNCRIP [human (endogenous in HEK293T)] (parent)", "chain 1": "MQSKRDCELWCERVNPENKAALEAWVRETGIRLVQVNGQRKYGGPPPGWVGSPPPAGSEVFIGRLPQDVYEHQLIPLFQRVGRLYEFRLMMTFSGLNRGFAYARYSSRRGAQAAIATLHNHPLRPSCPLLVCRSTEKCELSVDGLPPNLTRSALLLALQPLGPGLQEARLLPSPGPAPGQIALLKFSSHRAAAMAKKALVEGQSHLCGEQVAVEWLKPDLKQRLRQQLVGPFLRSPQPEGSQLALARDKLGFQGARATLQLLCQRMKLGSPVFLTKCLGIGPAGWHRFWYQVVIPGHPVPFSGLIWVVLTLDGRDGHEVAKDAVSVRLLQALSESGANLLWSAGAEAGTMVKQ", "chain 2": "MATEHVNGNGTEEPMDTTSAVIHSENFQTLLDAGLPQKVAEKLDEIYVAGLVAHSDLDERAIEALKEFNEDGALAVLQQFKDSDLSHVQNKSAFLCGVMKTYRQREKQGTKVADSSKGPDEAKIKALLERTGYTLDVTTGQRKYGGPPPDSVYSGQQPSVGTEIFVGKIPRDLFEDELVPLFEKAGPIWDLRLMMDPLTGLNRGYAFVTFCTKEAAQEAVKLYNNHEIRSGKHIGVCISVANNRLFVGSIPKSKTKEQILEEFSKVTEGLTDVILYHQPDDKKKNRGFCFLEYEDHKTAAQARRRLMSGKVKVWGNVGTVEWADPIEDPDPEVMAKVKVLFVRNLANTVTEEILEKAFSQFGKLERVKKLKDYAFIHFDERDGAVKAMEEMNGKDLEGENIEIVFAKPPDQKRKERKAQRQAAKNQMYDDYYYYGPPHMPPPTRGRGRGGRGGYGYPPDYYGYEDYYDYYGYDYHNYRGGYEDPYYGYEDFQVGARGRGGRGARGAAPSRGRGAAPPRGRAGYSQRGGPGSARGVRGARGGAQQQRGRGVRGARGGRGGNVGGKRKADGYNQPDSKRRQTNNQNWGSQPIAQQPLQGGDHSGNYGYKSENQEFYQDTFGQQWK"}, "B2": {"name": "FLAG-tagged DND1 wild-type (Dead End, full-length human protein 1-353) [human] / RNA helicase MOV10 [human (endogenous in HEK293T)] (parent)", "chain 1": "B1 chain 1", "chain 2": "MPSKFSCRQLREAGQCFESFLVVRGLDMETDRERLRTIYNRDFKISFGTPAPGFSSMLYGMKIANLAYVTKTRVRFFRLDRWADVRFPEKRRMKLGSDISKHHKSLLAKIFYDRAEYLHGKHGVDVEVQGPHEARDGQLLIRLDLNRKEVLTLRLRNGGTQSVTLTHLFPLCRTPQFAFYNEDQELPCPLGPGECYELHVHCKTSFVGYFPATVLWELLGPGESGSEGAGTFYIARFLAAVAHSPLAAQLKPMTPFKRTRITGNPVVTNRIEEGERPDRAKGYDLELSMALGTYYPPPRLRQLLPMLLQGTSIFTAPKEIAEIKAQLETALKWRNYEVKLRLLLHLEELQMEHDIRHYDLESVPMTWDPVDQNPRLLTLEVPGVTESRPSVLRGDHLFALLSSETHQEDPITYKGFVHKVELDRVKLSFSMSLLSRFVDGLTFKVNFTFNRQPLRVQHRALELTGRWLLWPMLFPVAPRDVPLLPSDVKLKLYDRSLESNPEQLQAMRHIVTGTTRPAPYIIFGPPGTGKTVTLVEAIKQVVKHLPKAHILACAPSNSGADLLCQRLRVHLPSSIYRLLAPSRDIRMVPEDIKPCCNWDAKKGEYVFPAKKKLQEYRVLITTLITAGRLVSAQFPIDHFTHIFIDEAGHCMEPESLVAIAGLMEVKETGDPGGQLVLAGDPRQLGPVLRSPLTQKHGLGYSLLERLLTYNSLYKKGPDGYDPQFITKLLRNYRSHPTILDIPNQLYYEGELQACADVVDRERFCRWAGLPRQGFPIIFHGVMGKDEREGNSPSFFNPEEAATVTSYLKLLLAPSSKKGKARLSPRSVGVISPYRKQVEKIRYCITKLDRELRGLDDIKDLKVGSVEEFQGQERSVILISTVRSSQSFVQLDLDFNLGFLKNPKRFNVAVTRAKALLIIVGNPLLLGHDPDWKVFLEFCKENGGYTGCPFPAKLDLQQGQNLLQGLSKLSPSTSGPHSHDYLPQEREGEGGLSLQVEPEWRNEL"}, "B3": {"name": "FLAG-tagged DND1 wild-type (Dead End, full-length human protein 1-353) [human] / MEX3A [human (endogenous in HEK293T)] (parent)", "chain 1": "B1 chain 1", "chain 2": "MPSLVVSGIMERNGGFGELGCFGGSAKDRGLLEDERALQLALDQLCLLGLGEPPAPTAGEDGGGGGGGAPAQPAAPPQPAPPPPPAAPPAAPTAAPAAQTPQPPTAPKGASDAKLCALYKEAELRLKGSSNTTECVPVPTSEHVAEIVGRQGCKIKALRAKTNTYIKTPVRGEEPVFMVTGRREDVATARREIISAAEHFSMIRASRNKSGAAFGVAPALPGQVTIRVRVPYRVVGLVVGPKGATIKRIQQQTNTYIITPSRDRDPVFEITGAPGNVERAREEIETHIAVRTGKILEYNNENDFLAGSPDAAIDSRYSDAWRVHQPGCKPLSTFRQNSLGCIGECGVDSGFEAPRLGEQGGDFGYGGYLFPGYGVGKQDVYYGVAETSPPLWAGQENATPTSVLFSSASSSSSSSAKARAGPPGAHRSPATSAGPELAGLPRRPPGEPLQGFSKLGGGGLRSPGGGRDCMVCFESEVTAALVPCGHNLFCMECAVRICERTDPECPVCHITATQAIRIFS"}}}
{"variants_of": "B1", "test": "FLAG immunoprecipitation and LC/ESI-MS/MS", "conditions": "with SYNCRIP [human (endogenous in HEK293T)]; HEK293T cells, three biological replicates; read off a plot"}
{"variant": "chain 1 MQSKRDCELWCERVNPENKAALEAWVRETGIRLVQVNGQRKYGGPPPGWVGSPPPAGSEVFIGRLPQDVYEHQLIPLFQRVGRLYEFRLMMTFSGLNAGFAYARYSSRRGAQAAIATLHNHPLRPSCPLLVCRSTEKCELSVDGLPPNLTRSALLLALQPLGPGLQEARLLPSPGPAPGQIALLKFSSHRAAAMAKKALVEGQSHLCGEQVAVEWLKPDLKQRLRQQLVGPFLRSPQPEGSQLALARDKLGFQGARATLQLLCQRMKLGSPVFLTKCLGIGPAGWHRFWYQVVIPGHPVPFSGLIWVVLTLDGRDGHEVAKDAVSVRLLQALSESGANLLWSAGAEAGTMVKQ", "note": "[chain 1 R98A]", "screen value": -2.5}
{"variants_of": "B2", "test": "FLAG immunoprecipitation and LC/ESI-MS/MS", "conditions": "with RNA helicase MOV10 [human (endogenous in HEK293T)]; HEK293T cells, three biological replicates; read off a plot"}
{"variant": "chain 1 MQSKRDCELWCERVNPENKAALEAWVRETGIRLVQVNGQRKYGGPPPGWVGSPPPAGSEVFIGRLPQDVYEHQLIPLFQRVGRLYEFRLMMTFSGLNAGFAYARYSSRRGAQAAIATLHNHPLRPSCPLLVCRSTEKCELSVDGLPPNLTRSALLLALQPLGPGLQEARLLPSPGPAPGQIALLKFSSHRAAAMAKKALVEGQSHLCGEQVAVEWLKPDLKQRLRQQLVGPFLRSPQPEGSQLALARDKLGFQGARATLQLLCQRMKLGSPVFLTKCLGIGPAGWHRFWYQVVIPGHPVPFSGLIWVVLTLDGRDGHEVAKDAVSVRLLQALSESGANLLWSAGAEAGTMVKQ", "note": "[chain 1 R98A]", "screen value": -3.2}
{"variants_of": "B3", "test": "FLAG immunoprecipitation and LC/ESI-MS/MS", "conditions": "with MEX3A [human (endogenous in HEK293T)]; HEK293T cells, three biological replicates; read off a plot"}
{"variant": "chain 1 MQSKRDCELWCERVNPENKAALEAWVRETGIRLVQVNGQRKYGGPPPGWVGSPPPAGSEVFIGRLPQDVYEHQLIPLFQRVGRLYEFRLMMTFSGLNAGFAYARYSSRRGAQAAIATLHNHPLRPSCPLLVCRSTEKCELSVDGLPPNLTRSALLLALQPLGPGLQEARLLPSPGPAPGQIALLKFSSHRAAAMAKKALVEGQSHLCGEQVAVEWLKPDLKQRLRQQLVGPFLRSPQPEGSQLALARDKLGFQGARATLQLLCQRMKLGSPVFLTKCLGIGPAGWHRFWYQVVIPGHPVPFSGLIWVVLTLDGRDGHEVAKDAVSVRLLQALSESGANLLWSAGAEAGTMVKQ", "note": "[chain 1 R98A]", "screen value": -3.2}
